According to patent US10640556B2, “Anti amphiregulin antibodies, compositions comprising same and uses thereof” (Yeda Research and Development Co. Ltd., priority 2015, dated 2020):

T1: human AREG (Homo sapiens, UniProt P15514)
T1 sequence (P15514 101-198 limits assumed): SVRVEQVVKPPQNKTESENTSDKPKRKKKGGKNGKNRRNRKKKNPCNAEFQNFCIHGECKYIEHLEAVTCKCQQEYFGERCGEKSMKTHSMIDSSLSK

T2: murine AREG (Mus musculus, UniProt P31955)
T2 construct: purchased Peprotech
T2 sequence (P31955 94-191 limits assumed): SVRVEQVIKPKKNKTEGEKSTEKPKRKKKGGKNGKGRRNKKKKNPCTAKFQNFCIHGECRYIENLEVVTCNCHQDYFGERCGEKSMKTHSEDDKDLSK


Assays:
EGFR [1] = molecular target: T3, EGFR (Homo sapiens, UniProt P00533); test: Receptor downregulation assay in MCAS cells; format: cell-based; set-up: endogenous in cells; host or cells: MCAS, MLS, H358, A549; conditions: ligand 50 ng/ml
Procedure: (§1) The cells were later washed and lysed, and the associated radioactivity was determined. […] The cells were later washed and lysed in 1 N NaOH. Cell-associated radioactivity was determined. […] Washed immunocomplexes, along with whole extracts, were immunoblotted with the indicated antibodies.
(§2) At the end of the incubation period, the cells were placed on ice, washed with ice cold medium and subjected to mild acid wash (0.2 M Na-acetate buffer, pH 4.5, and 0.5 M NaCl) for 2 minutes, followed by 2 washes in ice cold medium. […] Finally, cells were lysed in 1 N NaOH, and their radioactivity was determined.

EGFR [2] = molecular target: T3, EGFR; test: Ligand displacement of radiolabeled EGF on MCAS cells; format: binding; set-up: endogenous in cells; host or cells: MCAS, MLS, H358, A549; conditions: displacement of 125I-EGF (50 ng/mL), 3 hours on ice
Procedure: FIGS. 2A-2F illustrate that AREG is a low affinity ligand that induces limited receptor downregulation, as well as weak ubiquitination and degradation of EGFR. […] The cells were later washed and lysed, and the associated radioactivity was determined. The extent of ligand displacement (mean±range of triplicates) was plotted with respect to binding in the absence of an unlabeled ligand; FIG. 2B is a graph showing results of MCAS ovarian cells incubated in a 12 well plate and starved overnight for serum factors. […] The cells were later washed and lysed in 1 N NaOH. Cell-associated radioactivity was determined. […] Washed immunocomplexes, along with whole extracts, were immunoblotted with the indicated antibodies.
For ligand displacement assays, cells were grown in 12-well plates and serum-starved for 12-15 hours. […] The cells were later washed, lysed and their radioactivity counted.

[3] = test system: feedback regulatory components of the EGFR signaling pathways; test: qPCR of feedback regulators of EGFR signaling in MCF10A cells; format: cell-based, human
Procedure: FIGS. 3A-3F illustrate that amphiregulin acts as a weak inducer of transcription-mediated feedback regulatory loops of EGFR signaling. […] Shown are mRNA profiles representative of two independent biological repeats.
Total RNA was extracted using the PerfectPure RNA Cultured Cell Kit (5-prime) according to the manufacturer's instructions. Total RNA quantity and quality were determined using the NanoDrop® ND-1000 Spectrophotometer. Complementary DNA was synthesized using the High Capacity Reverse Transcription kit (Applied Biosystems, Life Technologies). Primers for the positive (EREG, TGF-alpha and HB-EGF), negative regulators (MIG6/RALT, DUSP1 and DUSP6) and beta2-microglobulin (B2M) were as previously described (Lauriola M et al., (2014) Nat Commun. 5: 5073). The KiCqStart primers from Sigma-Aldrich were used to detect the levels of human AREG (H_AREG_3). Real-time qPCR analysis was performed with SYBR Green (Applied Biosystems) and specific primers on the StepOne Plus Real-Time PCR system (Applied Biosystems). qPCR signals (cT) were normalized to B2M.

EGFR [4] = molecular target: T3, EGFR; test: Receptor downregulation assay in MCF10A cells; format: cell-based; set-up: endogenous in cells; conditions: AREG 1 ng/mL or 100 ng/mL
Procedure: FIGS. 2G-2H illustrate that AREG is a low affinity ligand able to induce only limited receptor downregulation in normal epithelial cells. FIG. 2G is a graph illustrating results of the immortalized human mammary cell line MCF10A used for ligand displacement assays. […] The cells were later washed and lysed, and the associated radioactivity was determined. The extent of ligand displacement (mean±range of triplicates) is depicted; and FIG. 2H is a graph illustrating results of MCF10A cells grown in 12 well plates and starved overnight for serum factors. […] The cells were later washed, lysed in 1N NaOH and their radioactivity was determined. Averages of triplicates and S.D. values (bars) are presented.
as §2

EGFR [5] = molecular target: T3, EGFR; test: Ligand-induced receptor ubiquitination assay (MCAS, MLS, H358, A549 cells); format: cell-based; set-up: endogenous in cells; host or cells: MCAS, MLS, H358, A549; conditions: 10 minutes
Procedure: as §1
For determination of ligand-induced receptor ubiquitination, cells were extracted in lysis buffer (50 mM HEPES pH 7.5, 150 mM NaCl, 10% glycerol, 1% Triton X-100, 1 mM EDTA, 1 mM EGTA, 10 mM NaF and 30 mM 3-glycerol phosphate) with freshly added 0.2 mM Na3VO4, a protease inhibitor cocktail and 2 mM N-ethylmaleimide (NEM). Twenty μL of protein G agarose beads and 1 μg of antibody were added to 500 μg of protein lysate. After a 2 hour incubation at 4° C., the immunoprecipitates were collected by centrifugation at 14,000 rpm at 4° C. for 1 minute. The supernatant was discarded and the pellet was washed thrice, prior to electrophoresis.

human AREG = molecular target: T1, human AREG; test: Antigenic determinant comparison of anti-AREG mAbs; format: binding; conditions: data not shown
MCF10A cells = test: MTS proliferation assay of MCF10A cells; format: cell-based, human; conditions: 72 h, absence or presence of AREG, relatively high mAb concentrations
Procedure: Proliferation assays using MTS were performed on MCF10A cells (1,000 cells per well). C ells were plated on the day before and treated for 72 h with the indicated mAbs (1, 5, 10, 20 or 50 ug/mL). Increasing concentrations of the indicated mAbs (either alone or in combination with AREG) were used in medium supplemented with 1% serum and AREG (either at 10 or 100 ng/mL).

[6] = test system: Cal-27 human head and neck cancer cells; test: Cal-27 head and neck tumor xenograft in nude mice; format: in vivo; conditions: Cal-27 tumors, 300 μg per injection intraperitoneally twice a week
Procedure: Female nude mice were inoculated subcutaneously with Cal-27 human head and neck cancer cells (2×10^6). Once tumors became palpable (5-7 days) mice were randomized and intraperitoneally injected with saline (Control), or with anti-AR mAbs: AR30, AR37 or AR558 (each at 300 μg per injection). Mice were treated with mAbs twice a week and tumor volume was followed. Shown are averages and SD values from at least 5 mice per group.
To test the ability of anti-AREG antibodies to reduce growth of human tumor cells implanted in immunocompromised mice, Cal 27 tumor cells were used which were inoculated subcutaneously and randomized for treatment after tumors became palpable. […] Furthermore, studies testing pairs of two mAbs illustrate their enhanced anti-tumor activities (data not shown), this can be attributed to the fact that the mAbs bind to distinct antigenic determinants of amphiregulin.

EGFR [7] = test: AREG-induced EGFR phosphorylation in HeLa cells (immunoblot); format: cell-based, human; conditions: AREG 100 ng/ml, mAb 0.1-50 μg/ml, FIG. 10A
Procedure: FIGS. 6A-6F illustrate AR30, an anti-AREG monoclonal antibody, that inhibits auto-phosphorylation of EGFR. FIG. 6A is a photograph of a Coomassie blue staining of an acrylamide gel showing a purified fraction of AREG isolated from bacteria and purified on a NiNTA column. The molecular weight marker lane indicates a 15 kilodalton band; FIG. 6B, cells were seeded in a 24 well plate, washed and incubated with increasing concentrations of the purified TRX-AREG fusion protein (8.5, 85, 850, 8500 ng/ml). […] Following a 10-min long incubation, the cells were lysed and cleared extracts immunoblotted (IB) with an anti-phosphotyrosine antibody (PY-99); FIG. 6C, 96 well plates were coated with the indicated ligands (0.1 μg/ml), and then incubated for 3 hours with three different mAbs specific to AREG. Thereafter, wells were incubated for two hours with an anti-mouse antibody conjugated to HRP, followed by a 30 minutes incubation with ATBS. […] Serum from non-immunized mice was used as a negative control; FIG. 6E, HeLa cells were pre-incubated with (or without) mAb AR30 (20 μg/mL) and increasing concentrations of AREG. Thereafter, whole cell lysates were immunoblotted (IB) using an antibody specific to the phosphorylated form of EGFR (tyrosine 1068) or an antibody to EGFR; and FIG. 6F, HeLa cells were incubated with (or without) AREG (100 ng/mL) in the presence of increasing concentrations of mAb AR30 (5, 10, 20 and 50 μg/mL). Thereafter, cells were lysed and cleared extracts immunoblotted (IB) using the indicated antibodies.
FIG. 10A illustrates that anti-AREG mAbs inhibit ligand-induced activation of EGFR. HeLa cells were incubated with (or without) AREG (100 ng/ml) in the presence of increasing concentrations of mAb AR30, mAb AR 37 or mAb AR558 (0.1, 0.2, 0.5, 0.75, 1.5, 3.5, 6.25, 12.5, 25 and 50 μg/ml). Thereafter, cells were lysed and cleared extracts immunoblotted (IB) using the indicated antibodies, including an antibody specific to the phosphorylated (active) for of EGFR (pEGFR).

murine AREG = molecular target: T2, murine AREG; test: ELISA on plates coated with murine AREG; format: binding
Procedure: FIG. 9A—96 well plates were coated with the indicated ligands (400 ng/mL), including a murine HB-EGF fused to thioredoxin. Plates were incubated for 2 hours with 3 different mAbs specific to AREG (as indicated). Thereafter, wells were incubated for two hours with an anti-mouse antibody conjugated to HRP, followed by a 30 minute incubation with ATBS. Signals were determined using an ELISA reader (set at 415 nm). […] Thereafter, wells were incubated for two hours with an anti-mouse antibody conjugated to HRP, followed by a 30-min incubation with ATBS. Signals were determined using an ELISA reader (set at 415 nm). […] 96-well plates were coated with decreasing concentrations (400, 200, 100, 50, 25 and 10 ng/mL) of the indicated 3 ligands, and then incubated for 2 hours with three different mAbs specific to AREG (AR30, AR37 and AR558) at […]. Thereafter, wells were incubated for two hours with an anti-mouse antibody conjugated to HRP, followed by a 20-min incubation with ATBS. Signals were determined using an ELISA reader (set at 420 nm).

EGFR downregulation (EGFR [1]) | lower binding affinity compared to EGF (EGFR [2]) | ubiquitination of EGFR (EGFR [5]; ligand 100 ng/mL, MCAS, MLS, H358, A549 cells) | recognition of murine AREG (ELISA) (murine AREG; ligand coated at 400-10 ng/mL, FIG. 9C) | Molecule | induction of feedback regulator transcripts (qPCR) ([3]; ligand 10 ng/ml) | induction of feedback regulator transcripts (qPCR) ([3]; ligand 100 ng/ml) | EGFR downregulation (EGFR [4]) | ubiquitination of EGFR (EGFR [5]; ten-fold higher concentration (1 μg/mL)) | antigenic determinant targeted (human AREG) | inhibition of proliferation (MCF10A cells) | tumor growth [6] | AREG-induced phosphorylation of EGFR (EGFR [7]) | recognition of murine AREG (ELISA) (murine AREG; ligand coated at 400 ng/mL, FIG. 9A)
approximately 30% | approximately 100 fold | failed to do so |  | AREG: amphiregulin, low-affinity EGF-family ligand of EGFR | hardly detectable signals | clear, time dependent transcription of the six tested genes | effective downregulation of EGFR was observed only when testing very high concentrations | comparable levels of receptor ubiquitination as EGF and TGF-alpha |  |  |  |  | 
 |  |  | recognised the murine molecule | AR37: anti-AREG monoclonal antibody from AREG knockout mice; heavy chain SEQ ID NO: 62, light chain SEQ ID NO: 93 (antibody, not fully specified; AR37 heavy chain IgG complete amino acids coding sequence; (35)..(35) Xaa can be any naturally occurring amino acid; (73)..(73) Xaa can be any naturally occurring amino acid; AR37 light chain (IgG) complete amino acids coding sequence) heavy: EVQLVESGGDLVKPGGSLKLSCAASGFTFSNSGMXWFRLTPDKRLEWVATISSGSTYTFYPDTVKGRFIISRXNAKNTLYLQMSSLKSEDTAIYYCVREIWPVWGAGTTITVSSAKT light: QAVVTQESALSTSPGETVTLTCRSSTGAVTTSNYANWVQEKPDHLFTGLLGDTDNRPPGVPARFSGSLLGDKAALTITGAQTEDEAIYFCALWYSNHWVFGGGTKLTVL |  |  |  |  | engages a different determinant of human AREG | Moderate inhibition | comparably inhibit tumor growth | low concentrations of the antibodies were sufficient for blocking | recognized the murine molecule better than the other two mAbs tested
